Assay results reported in US20180346602A1.

Key:
[1] = target: anti-P-Selectin antibody (IgG4 subclass with mutations S228P/L235E) [IgG part: P01861]; assay: sandwich ELISA assay A; capture M1.7.10-Bi; antibody 4 at 25 ng/mL
[2] = target: anti-VEGF/ANG2 antibody (IgG1 subclass with mutations P329G/L234A/L235A/I253A/H310A/H435A) (human) [IgG part: P01857]; assay: sandwich ELISA assay C; capture on SA plate; tracer FcγRI-Dig; analyte 3 ng/mL
[3] = target: anti-VEGF/ANG2 antibody (IgG1 subclass with mutations P329G/L234A/L235A) (human) [IgG part: P01857]; assay: as above
[4] = target: anti-IGF-1R antibody (IgG1 subclass with mutations I253A/H310A/H435A) (human) [IgG part: P01857]; assay: as above
[5] = target: anti-P-Selectin antibody (IgG4 subclass with mutations S228P/L235E) (human) [IgG part: P01861]; assay: as above
[6] = target: anti-IGF-1R antibody (IgG1 subclass with mutations I253A/H310A/H435A) (human) [IgG part: P01857]; assay: sandwich ELISA assay C; capture on SA plate; tracer FcγRI-Dig; analyte 6 ng/mL
[7] = target: anti-VEGF/ANG2 antibody (IgG1 subclass with mutations P329G/L234A/L235A/I253A/H310A/H435A) (human) [IgG part: P01857]; assay: sandwich ELISA assay C; capture on SA plate; tracer FcγRI-Dig; analyte 0 ng/mL (blank)
[8] = target: anti-VEGF/ANG2 antibody (IgG1 subclass with mutations P329G/L234A/L235A) (human) [IgG part: P01857]; assay: as above
[9] = target: anti-IGF-1R antibody (IgG1 subclass with mutations I253A/H310A/H435A) (human) [IgG part: P01857]; assay: as above
[10] = target: anti-P-Selectin antibody (IgG4 subclass with mutations S228P/L235E) (human) [IgG part: P01861]; assay: as above
[11] = target: anti-IGF-1R antibody (IgG1 subclass with mutations I253A/H310A/H435A) [IgG part: P01857]; assay: sandwich ELISA assay A; capture M1.7.10-Bi; antibody 3 at 13 ng/mL
[12] = target: anti-P-Selectin antibody (IgG4 subclass with mutations S228P/L235E) [IgG part: P01861]; assay: sandwich ELISA assay A; capture M1.7.10-Bi; antibody 4 at 6 ng/mL
[13] = target: anti-VEGF/ANG2 antibody (IgG1 subclass with mutations P329G/L234A/L235A/I253A/H310A/H435A) (human) [IgG part: P01857]; assay: sandwich ELISA assay B; capture on SA plate; tracer M1.7.10-Dig; analyte 0 ng/mL (blank)
[14] = target: anti-VEGF/ANG2 antibody (IgG1 subclass with mutations P329G/L234A/L235A) (human) [IgG part: P01857]; assay: as above
[15] = target: anti-IGF-1R antibody (IgG1 subclass with mutations I253A/H310A/H435A) (human) [IgG part: P01857]; assay: as above
[16] = target: anti-P-Selectin antibody (IgG4 subclass with mutations S228P/L235E) (human) [IgG part: P01861]; assay: as above
[17] = target: anti-IGF-1R antibody (IgG1 subclass with mutations I253A/H310A/H435A) [IgG part: P01857]; assay: sandwich ELISA assay A; capture M1.7.10-Bi; antibody 3 at 6 ng/mL
[18] = target: anti-VEGF/ANG2 antibody (wild-type IgG1 subclass) [IgG part: P01857]; assay: sandwich ELISA assay A; capture M1.7.10-Bi; antibody 5 at 50 ng/mL
[19] = target: anti-VEGF/ANG2 antibody (IgG1 subclass with mutations P329G/L234A/L235A/I253A/H310A/H435A) (human) [IgG part: P01857]; assay: sandwich ELISA assay B; capture on SA plate; tracer M1.7.10-Dig; analyte 3 ng/mL
[20] = target: anti-VEGF/ANG2 antibody (IgG1 subclass with mutations P329G/L234A/L235A) (human) [IgG part: P01857]; assay: as above
[21] = target: anti-IGF-1R antibody (IgG1 subclass with mutations I253A/H310A/H435A) (human) [IgG part: P01857]; assay: as above
[22] = target: anti-P-Selectin antibody (IgG4 subclass with mutations S228P/L235E) (human) [IgG part: P01861]; assay: as above
[23] = target: anti-IGF-1R antibody (IgG1 subclass with mutations I253A/H310A/H435A) [IgG part: P01857]; assay: sandwich ELISA assay A; capture M1.7.10-Bi; antibody 3 at 2 ng/mL
[24] = target: anti-IGF-1R antibody (IgG1 subclass with mutations I253A/H310A/H435A) (human) [IgG part: P01857]; assay: sandwich ELISA assay B; capture on SA plate; tracer M1.7.10-Dig; analyte 6 ng/mL
[25] = target: anti-P-Selectin antibody (IgG4 subclass with mutations S228P/L235E) (human) [IgG part: P01861]; assay: as above

| signal [OD405 nm] [1] | signal [OD405 nm] [2] | signal [OD405 nm] [3] | signal [OD405 nm] [4] | signal [OD405 nm] [5] | signal [OD405 nm] [6] | signal [OD405 nm] [7] | signal [OD405 nm] [8] | signal [OD405 nm] [9] | signal [OD405 nm] [10] | signal [OD405 nm] [11] | signal [OD405 nm] [12] | signal [OD405 nm] [13] | signal [OD405 nm] [14] | signal [OD405 nm] [15] | signal [OD405 nm] [16] | signal [OD405 nm] [17] | signal [OD405 nm] [18] | signal [OD405 nm] [19] | signal [OD405 nm] [20] | Binder | further results |
| --- | --- | --- | --- | --- | --- | --- | --- | --- | --- | --- | --- | --- | --- | --- | --- | --- | --- | --- | --- | --- | --- |
| 0.037 OD405 nm | 1.16 OD405 nm | 1.22 OD405 nm | 1.21 OD405 nm | 1.19 OD405 nm | 1.21 OD405 nm | 1.18 OD405 nm | 1.23 OD405 nm | 1.22 OD405 nm | 1.19 OD405 nm | 0.04 OD405 nm | 0.036 OD405 nm | 0.035 OD405 nm | 0.038 OD405 nm | 0.045 OD405 nm | 0.049 OD405 nm | 0.038 OD405 nm | 0.041 OD405 nm | 0.036 OD405 nm | 0.165 OD405 nm | anti-variant (human) Fc-region antibody M1.3.17 (antibody, V domains shown) VH: EVKLLESGGGLVQPGGSLKLSCAASGIDFRRYWMNWVRQAPGKGLEWIGEIDPDSSTINYTPSLKDKFIISRDNAKNTMYLQMRKVRSEDTALYYCARPYDYGAWFAYWGQGTLVTVSA VL: QAVVTQESALTTSPGETVTLTCRSTTGAVTTSNYANWVQEKPDHLFTGLIGGTNKRAPGVPARFSGSLIGDKAALTITGAQTEDEAIYFCALWYSDHWVFGGGTKLTVL | signal [OD405 nm] [21]: 0.047 OD405 nm; signal [OD405 nm] [22]: 0.05 OD405 nm; signal [OD405 nm] [23]: 0.042 OD405 nm; signal [OD405 nm] [24]: 0.045 OD405 nm; signal [OD405 nm] [25]: 0.048 OD405 nm |
| 0.048 OD405 nm | 0.094 OD405 nm | 0.057 OD405 nm | 0.077 OD405 nm | 0.053 OD405 nm | 0.069 OD405 nm | 0.076 OD405 nm | 0.092 OD405 nm | 0.086 OD405 nm | 0.076 OD405 nm | 0.044 OD405 nm | 0.045 OD405 nm | 0.049 OD405 nm | 0.046 OD405 nm | 0.04 OD405 nm | 0.035 OD405 nm | 0.042 OD405 nm | 0.048 OD405 nm | 0.04 OD405 nm | 2.51 OD405 nm | anti-variant (human) Fc-region antibody M1.7.24 (antibody, V domains shown) VH: EVKLLESGGGLVQPGGSLKLSCAASGFDFSRYWMNWVRQAPGKGLEWIGEITPDSSTINYTPSLKDKFIISRDNAKNTLYLQMIKVRSEDTALYYCVRPYDYGAWFASWGQGTLVTVSA VL: QAVVTQESALTTSPGETVTLTCRSSTGAVTTSNYANWVQEKPDHLFTGLIGGTNKRAPGVPARFSGSLIGDKAALTITGAQTEDEAIYFCALWYSNHWVFGGGTKLTVL | signal [OD405 nm] [21]: 0.046 OD405 nm; signal [OD405 nm] [22]: 0.031 OD405 nm; signal [OD405 nm] [23]: 0.048 OD405 nm; signal [OD405 nm] [24]: 0.039 OD405 nm; signal [OD405 nm] [25]: 0.037 OD405 nm |
| 0.057 OD405 nm | 0.066 OD405 nm | 0.068 OD405 nm | 0.083 OD405 nm | 0.05 OD405 nm | 0.104 OD405 nm | 0.077 OD405 nm | 0.064 OD405 nm | 0.069 OD405 nm | 0.077 OD405 nm | 1.74 OD405 nm | 0.041 OD405 nm | 0.047 OD405 nm | 0.038 OD405 nm | 0.037 OD405 nm | 0.038 OD405 nm | 0.858 OD405 nm | 0.045 OD405 nm | 0.039 OD405 nm | 0.044 OD405 nm | anti-AAA variant Fc-region antibody M1.6.22 (antibody, V domains shown) VH: EVQLVESGGDLVKPGGSLKLSCAASGFTFSSYGMSWVRQTPDKRLEWVATISSGGSYIYYPDSVKGRFTISRDNAKNTLYLQMSSLKSEDTAMYYCARLGMITTGYAMDYWGQGTSVTVSS VL: DVLMTQTPLSLPVSLGDQASISCRSSQTIVHSTGHTYLEWFLQKPGQSPKLLIYKVSNRFSGVPDRFSGSGSGTDFTLKISRVEAEDLGVYYCFQGSHVPYTFGGGTKLEIK | signal [OD405 nm] [21]: 2.26 OD405 nm; signal [OD405 nm] [22]: 0.039 OD405 nm; signal [OD405 nm] [23]: 0.199 OD405 nm; signal [OD405 nm] [24]: 2.73 OD405 nm; signal [OD405 nm] [25]: 0.04 OD405 nm |
